Laboratory results: patent US20220324939A1 (Regeneron, published 2022)
Residue numbers refer to the chain shown, from its start.

T1: MAGE-A4 peptide on HLA-A*02:01 (human)
T1 peptide: KVLEHVVRV

B1: PN41805 (TCR, V domains shown)
V domain 1: AQTVTQSQPEMSVQEAETVTLSCTYDTSENNYYLFWYKQPPSRQMILVIRQEAYKQQNATENRFSVNFQKAAKSFSLKISDSQLGDTAMYFCAFGMYSGGGADGLTFGKGTHLIIQP
V domain 2: AAGVIQSPRHLIKEKRETATLKCYPIPRHDTVYWYQQGPGQDPQFLISFYEKMQSDKGSIPDRFSAQQFSDYHSELNMSSLELGDSALYFCASSPTGTGDGYTFGSGTRLTVV
notes: stained with anti-mouse TCR constant region H57-597; full-length chains on transfected CHO cells; also called TCR No. 30
B2: PN41746 (TCR, V domains shown)
V domain 1: AQTVTQSQPEMSVQEAETVTLSCTYDTSESDYYLFWYKQPPSRQMILVIRQEAYKQQNATENRFSVNFQKAAKSFSLKISDSQLGDAAMYFCAYRSATGNQFYFGTGTSLTVIP
V domain 2: DVKVTQSSRYLVKRTGEKVFLECVQDMDHENMFWYRQDPGLGLRLIYFSYDVKMKEKGDIPEGYSVSREKKERFSLILESASTNQTSMYLCASSLWGLNTEAFFGQGTRLTVV
notes: stained with anti-mouse TCR constant region H57-597; full-length chains on transfected CHO cells; also called TCR No. 28
B3: PN41820 (TCR, V domains shown)
V domain 1: AQSVTQPGSHVSVSEGALVLLRCNYSSSVPPYLFWYVQYPNQGLQLLLKYTTGATLVKGINGFEAEFKKSETSFHLTKPSAHMSDAAEYFCAVSSGSARQLTFGSGTQLTVLP
V domain 2: B2 V domain 2 with L95H, W96D, G97R, L98W, N99D, T100Y, E101G, A102Y, F103T, Q106S
notes: stained with anti-mouse TCR constant region H57-597; full-length chains on transfected CHO cells; also called TCR No. 31
B4: PN41656 (TCR, V domains shown)
V domain 1: AQKITQTQPGMFVQEKEAVTLDCTYDTSDPSYGLFWYKQPSSGEMIFLIYQGSYDQQNATEGRYSLNFQKARKSANLVISASQLGDSAMYFCAMRDLTTSGTYKYIFGTGTRLKVLA
V domain 2: B2 V domain 2 with L95F, W96G, L98W, N99G, T100Y, E101G, A102Y, F103T, Q106S
notes: stained with anti-mouse TCR constant region H57-597; full-length chains on transfected CHO cells; also called TCR No. 23
B5: PN41573 (TCR, V domains shown)
V domain 1: B2 V domain 1
V domain 2: B2 V domain 2 with L98T, T100E, E101K, A102L, Q106S, R109Q, T111S, V113L
notes: stained with anti-mouse TCR constant region H57-597; full-length chains on transfected CHO cells; also called TCR No. 15
B6: PN41868 (TCR, V domains shown)
V domain 1: B2 V domain 1
V domain 2: B2 V domain 2 with L98T, N99H, T100E, E101K, A102L, Q106S, R109Q, T111S, V113L
notes: stained with anti-mouse TCR constant region H57-597; full-length chains on transfected CHO cells; also called TCR No. 37
B7: PN41690 (TCR, V domains shown)
V domain 1: B2 V domain 1 with T98I
V domain 2: B2 V domain 2 with L98V
notes: stained with anti-mouse TCR constant region H57-597; full-length chains on transfected CHO cells; also called TCR No. 24
B8: PN41608 (TCR, V domains shown)
V domain 1: B2 V domain 1 with T98P
V domain 2: B2 V domain 2 with L95F, L98W
notes: stained with anti-mouse TCR constant region H57-597; full-length chains on transfected CHO cells; also called TCR No. 18
B9: PN41869 (TCR, V domains shown)
V domain 1: B2 V domain 1 with A97S
V domain 2: B2 V domain 2 with L98T, T100E, E101K, A102L, Q106S, R109Q, T111S, V113L
notes: stained with anti-mouse TCR constant region H57-597; full-length chains on transfected CHO cells; also called TCR No. 38
B10: PN41607 (TCR, V domains shown)
V domain 1: B2 V domain 1 with T98S
V domain 2: B2 V domain 2 with L98T, T100E, E101K, A102L, Q106S, R109Q, T111S, V113L
notes: stained with anti-mouse TCR constant region H57-597; full-length chains on transfected CHO cells; also called TCR No. 17
B11: PN41702 (TCR, V domains shown)
V domain 1: B2 V domain 1
V domain 2: B2 V domain 2 with G97A, L98V, T100E, E101K, A102L, Q106S, R109Q, T111S, V113L
notes: stained with anti-mouse TCR constant region H57-597; full-length chains on transfected CHO cells; also called TCR No. 25
B12: PN41568 (TCR, V domains shown)
V domain 1: B2 V domain 1 with T98R
V domain 2: B2 V domain 2 with L98T, T100E, E101K, A102L, Q106S, R109Q, T111S, V113L
notes: stained with anti-mouse TCR constant region H57-597; full-length chains on transfected CHO cells; also called TCR No. 14
B13: PN41532 (TCR, V domains shown)
V domain 1: B2 V domain 1 with T98E
V domain 2: B2 V domain 2
notes: stained with anti-mouse TCR constant region H57-597; full-length chains on transfected CHO cells; also called TCR No. 8
B14: PN41513 (TCR, V domains shown)
V domain 1: B2 V domain 1 with T98P
V domain 2: B2 V domain 2 with W96F, G97A, L98T, T100E, E101K, A102L, Q106S, R109Q, T111S, V113L
notes: stained with anti-mouse TCR constant region H57-597; full-length chains on transfected CHO cells; also called TCR No. 3
B15: PN41475 (TCR, V domains shown)
V domain 1: B2 V domain 1 with E61V
V domain 2: B2 V domain 2 with L98S
notes: stained with anti-mouse TCR constant region H57-597; full-length chains on transfected CHO cells; also called TCR No. 1
B16: PN41822 (TCR, V domains shown)
V domain 1: B2 V domain 1
V domain 2: B2 V domain 2 with G97A
notes: stained with anti-mouse TCR constant region H57-597; full-length chains on transfected CHO cells; also called TCR No. 32
B17: PN41852 (TCR, V domains shown)
V domain 1: B2 V domain 1 with T98L, Q101D, F102M, Y103R, T106A, S109R, I113K
V domain 2: B2 V domain 2 with G97A
notes: stained with anti-mouse TCR constant region H57-597; full-length chains on transfected CHO cells; also called TCR No. 35
B18: PN41565 (TCR, V domains shown)
V domain 1: B2 V domain 1 with A97P
V domain 2: B2 V domain 2 with G97A, L98M
notes: stained with anti-mouse TCR constant region H57-597; full-length chains on transfected CHO cells; also called TCR No. 13
B19: PN41518 (TCR, V domains shown)
V domain 1: B2 V domain 1 with T98P
V domain 2: B2 V domain 2 with G97A, L98T, T100E, E101K, A102L, Q106S, R109Q, T111S, V113L
notes: stained with anti-mouse TCR constant region H57-597; full-length chains on transfected CHO cells; also called TCR No. 5
B20: PN41617 (TCR, V domains shown)
V domain 1: B2 V domain 1 with T98S
V domain 2: B2 V domain 2 with L98M
notes: stained with anti-mouse TCR constant region H57-597; full-length chains on transfected CHO cells; also called TCR No. 20
B21: PN41523 (TCR, V domains shown)
V domain 1: B2 V domain 1 with T98P
V domain 2: B2 V domain 2
notes: stained with anti-mouse TCR constant region H57-597; full-length chains on transfected CHO cells; also called TCR No. 7
B22: PN41577 (TCR, V domains shown)
V domain 1: B2 V domain 1 with T98P
V domain 2: B2 V domain 2 with L98T, T100E, E101K, A102L, Q106S, R109Q, T111S, V113L
notes: stained with anti-mouse TCR constant region H57-597; full-length chains on transfected CHO cells; also called TCR No. 16
B23: PN41829 (TCR, V domains shown)
V domain 1: B2 V domain 1
V domain 2: B2 V domain 2 with W96F, G97A
notes: stained with anti-mouse TCR constant region H57-597; full-length chains on transfected CHO cells; also called TCR No. 33
B24: PN41559 (TCR, V domains shown)
V domain 1: B2 V domain 1
V domain 2: B2 V domain 2 with L98W, N99G
notes: stained with anti-mouse TCR constant region H57-597; full-length chains on transfected CHO cells; also called TCR No. 12
B25: PN41520 (TCR, V domains shown)
V domain 1: B2 V domain 1 with T98R
V domain 2: B2 V domain 2 with L98V, T100S, E101P, A102L, F103H, Q106N, V113T
notes: stained with anti-mouse TCR constant region H57-597; full-length chains on transfected CHO cells; also called TCR No. 6
B26: PN41494 (TCR, V domains shown)
V domain 1: B2 V domain 1
V domain 2: B2 V domain 2 with L98W, T100S, E101P, A102L, F103H, Q106N, V113T
notes: stained with anti-mouse TCR constant region H57-597; full-length chains on transfected CHO cells; also called TCR No. 2
B27: PN41654 (TCR, V domains shown)
V domain 1: GESVGLHLPTLSVQEGDNSIINCAYSNSASDYFIWYKQESGKGPQFIIDIRSNMDKRQGQRVTVLLNKTVKHLSLQIAATQPGDSAVYFCAEKRDNYGQNFVFGPGTRLSVLP
V domain 2: DVKVTQSSRYLVKRTGEKVFLECVQDMDHENMFWYRQDPGLGLRLIYFSYDVKMKEKGDIPEGYSVSREKKERFSLILESASTNQTSMYLCASSLYSYGYTFGSGTRLTVV
notes: stained with anti-mouse TCR constant region H57-597; full-length chains on transfected CHO cells; also called TCR No. 22
B28: PN41867 (TCR, V domains shown)
V domain 1: AQTVTQSQPEMSVQEAETVTLSCTYDTSENNYYLFWYKQPPSRQMILVIRQEAYKQQNATENRFSVNFQKAAKSFSLKISDSQLGDTAMYFCAFMKTQGGSEKLVFGKGTKLTVNP
V domain 2: AAGVIQSPRHLIKEKRETATLKCYPIPRHDTVYWYQQGPGQDPQFLISFYEKMQSDKGSIPDRFSAQQFSDYHSELNMSSLELGDSALYFCASSLVGYGYTFGSGTRLTVV
notes: stained with anti-mouse TCR constant region H57-597; full-length chains on transfected CHO cells; also called TCR No. 36
B29: PN41712 (TCR, V domains shown)
V domain 1: AQTVTQSQPEMSVQEAETVTLSCTYDTSENNYYLFWYKQPPSRQMILVIRQEAYKQQNATENRFSVNFQKAAKSFSLKISDSQLGDTAMYFCALNTGNQFYFGTGTSLTVIP
V domain 2: GAVVSQHPSWVICKSGTSVKIECRSLDFQATTMFWYRQFPKQSLMLMATSNEGSKATYEQGVEKDKFLINHASLTLSTLTVTSAHPEDSSFYICSAWDGFYGYTFGSGTRLTVV
notes: stained with anti-mouse TCR constant region H57-597; full-length chains on transfected CHO cells; also called TCR No. 27
B30: PN41748 (TCR, V domains shown)
V domain 1: SQELEQSQQSLIVQEGKNLTINCTSSKTLYGLYWYKQKYGEGLIFLMMLQKGGEEKSHEKITAKLDEKKQQSSLHITASQPSHAGIYLCGADMYSGGGADGLTFGKGTHLIIQP
V domain 2: B29 V domain 2
notes: stained with anti-mouse TCR constant region H57-597; full-length chains on transfected CHO cells; also called TCR No. 29
B31: PN41703 (TCR, V domains shown)
V domain 1: DAKTTQPPSMDCAEGRAANLPCNHSTISGNEYVYWYRQIHSQGPQYIIHGLKNNETNEMASLIITEDRKSSTLILPHATLRDTAVYYCIVRPGGTYKYIFGTGTRLKVLA
V domain 2: DVKVTQSSRYLVKRTGEKVFLECVQDMDHENMFWYRQDPGLGLRLIYFSYDVKMKEKGDIPEGYSVSREKKERFSLILESASTNQTSMYLCATGGDNQPQHFGDGTRLSIL
notes: stained with anti-mouse TCR constant region H57-597; full-length chains on transfected CHO cells; also called TCR No. 26

Molecular target: T1, MAGE-A4 peptide on HLA-A*02:01
Assay: multimer staining

Binder | binding result
B1 | recognises
B2 | recognises
B3 | recognises
B4 | recognises
B5 | recognises
B6 | recognises
B7 | recognises
B8 | recognises
B9 | recognises
B10 | recognises
B11 | recognises
B12 | recognises
B13 | recognises
B14 | recognises
B15 | recognises
B16 | recognises

Binder | binding result
B17 | recognises
B18 | recognises
B19 | recognises
B20 | recognises
B21 | recognises
B22 | recognises
B23 | recognises
B24 | recognises
B25 | recognises
B26 | recognises
B27 | recognises
B28 | recognises
B29 | recognises
B30 | recognises
B31 | recognises

Molecular target: T2, soluble HLA-A2 (…) tetramer (human)
T2 construct: Bought tetramer reagent; also called MAGE-A4/HLA tetramer reagent; HLA-A02:01 MAGE-A4 tetramer
Assay: flow cytometry, HLA-A2 (…) tetramer staining of CHO cells transfected with the TCR
Protocol: Samples were then analyzed on an LSRFortessa X-20 (BD Biosciences, San Jose, Calif.).

Binder | % in Ag+ gate >250 MFI, >1% [%]
B1 | 30.4
B2 | 90.2
B3 | 8.32
B4 | 13.8
B5 | 85.7
B6 | 67.1
B7 | 75.3
B8 | 77
B9 | 76.5
B10 | 81
B11 | 8.13
B12 | 82.9
B13 | 85.4
B14 | 29.6
B15 | 65.5
B16 | 63.5

Binder | % in Ag+ gate >250 MFI, >1% [%]
B17 | 18
B18 | 4.02
B19 | 34.9
B20 | 90.6
B21 | 90.5
B22 | 80
B23 | 19.5
B24 | 74.3
B25 | 16.9
B26 | 9.24
B27 | 36.2
B28 | 73
B29 | 20.7
B30 | 9.56
B31 | 42.5
